Data: PMC7705670, “Structural and functional characterization of M. tuberculosis sedoheptulose- 7-phosphate isomerase, a critical enzyme involved in lipopolysaccharide biosynthetic pathway” (Scientific Reports, 2020)

Key:
Assay in all cases: SEC
[1] = molecular target: MtbGmhA S126A mutant (M. tuberculosis) (UniProt P9WGG1)
[2] = molecular target: MtbGmhA S123A mutant (M. tuberculosis) (UniProt P9WGG1)
[3] = molecular target: MtbGmhA Q173A mutant (M. tuberculosis) (UniProt P9WGG1)
[4] = molecular target: MtbGmhA T122A mutant (M. tuberculosis) (UniProt P9WGG1)
[5] = molecular target: the molecule itself

MtbGmhA S126A mutant (from UniProt P9WGG1 1-196) (enzyme)
stoichiometry N [1]: 4

MtbGmhA S123A mutant (from UniProt P9WGG1 1-196) (enzyme)
stoichiometry N [2]: 4

MtbGmhA Q173A mutant (from UniProt P9WGG1 1-196) (enzyme)
stoichiometry N [3]: 4

MtbGmhA T122A mutant (from UniProt P9WGG1 1-196) (enzyme)
stoichiometry N [4]: 4

B1: MtbGmhA N53G mutant (enzyme)
chain: MCTARTAEEIFVETIAVKTRILNDRVLLEAARAIGDRLIAGYRAGARVFMCGGGGSAADAQHFAAELTGHLIFDRPPLGAEALHANSSHLTAVANDYDYDTVFARALEGSARPGDTLFAISTSGNSMSVLRAAKTARELGVTVVAMTGESGGQLAEFADFLINVPSRDTGRIQESHIVFIHAISEHVEHALFAPRQ
notes: not shown: His6, N-terminal, kept
stoichiometry N [5]: 4

B2: MtbGmhA S121G mutant (enzyme)
chain: MCTARTAEEIFVETIAVKTRILNDRVLLEAARAIGDRLIAGYRAGARVFMCGNGGSAADAQHFAAELTGHLIFDRPPLGAEALHANSSHLTAVANDYDYDTVFARALEGSARPGDTLFAIGTSGNSMSVLRAAKTARELGVTVVAMTGESGGQLAEFADFLINVPSRDTGRIQESHIVFIHAISEHVEHALFAPRQ
notes: as for B1
stoichiometry N [5]: 4
